# Assay results as given in patent publication US20250186597A1, “TARGETED IMMUNE ACTIVATION WITH IL-18 IMMUNOCYTOKINES” (BRIGHT PEAK THERAPEUTICS AG, priority 2023, published 2025).
# Experiments:
# Experiment in all cases: cell-based or functional assay
# [1] = target: IL-18 polypeptide of SEQ ID NO: 47 (C38S, C68S, C76S, C127S) (human) (UniProt Q14116)
# [2] = target: IL-18 polypeptide C144 (V11I, C38A, K53A, T63A, C76A, C127A) (human) (UniProt Q14116)
# [3] = target: IL-18 polypeptide of SEQ ID NO: 41 (K53A, S55A) (human) (UniProt Q14116)
# [4] = target: IL-18 polypeptide of SEQ ID NO: 60 (E6K, C38Q, K53A) (human) (UniProt Q14116)
# [5] = target: IL-18 polypeptide of SEQ ID NO: 55 (K53A, T63A, C38S, C68S, C76S, C127S, K70C) (human) (UniProt Q14116)
# [6] = target: IL-18 polypeptide of SEQ ID NO: 38 (E06K) (human) (UniProt Q14116)
# [7] = target: IL-18 polypeptide C148 (F2A, V11I, C38A, K53A, C76A, C127A) (human) (UniProt Q14116)
# [8] = target: IL-18 polypeptide C157 (V11I, C38A, K53A, C76A, C127A, D132A) (human) (UniProt Q14116)
# [9] = target: IL-18 polypeptide C143 (V11I, C38A, K53A, C76A, C127A) (human) (UniProt Q14116)
# [10] = target: IL-18 polypeptide C163 (V11I, C38A, C76A, Q103K, C127A) (human) (UniProt Q14116)
# [11] = target: IL-18 polypeptide of SEQ ID NO: 53 (K53A, T63A) (human) (UniProt Q14116)
# [12] = target: IL-18 polypeptide of SEQ ID NO: 37 (S55A) (human) (UniProt Q14116)
# [13] = target: IL-18 polypeptide of SEQ ID NO: 50 (E06K, K53A, T63A) (human) (UniProt Q14116)
# [14] = target: IL-18 polypeptide C161 (K8R, V11I, C38A, C76A, Q103E, C127A) (human) (UniProt Q14116)
# [15] = target: IL-18 polypeptide of SEQ ID NO: 54 (E06K, K53A, C38S, C68S, C76S, C127S, K70C) (human) (UniProt Q14116)
# [16] = target: IL-18 polypeptide C156 (V11I, C38A, N41A, K53A, C76A, C127A) (human) (UniProt Q14116)
# [17] = target: IL-18 polypeptide of SEQ ID NO: 46 (E06K, K53A, S55A, M51G) (human) (UniProt Q14116)
# [18] = target: IL-18 polypeptide of SEQ ID NO: 34 (E06K, K53A, S55A) (human) (UniProt Q14116)
# [19] = target: IL-18 polypeptide of SEQ ID NO: 36 (K53A) (human) (UniProt Q14116)
# [20] = target: IL-18 polypeptide C168 (V11I, C38A, C76A, S105K, C127A) (human) (UniProt Q14116)
# [21] = target: IL-18 polypeptide C167 (V11I, C38A, C76A, S105I, C127A) (human) (UniProt Q14116)
# [22] = target: IL-18 polypeptide of SEQ ID NO: 4 (E6K, C38A, K53A, C68A, M86C) (human) (UniProt Q14116)
# IL-18 polypeptide of SEQ ID NO: 4 (E6K, C38A, K53A, C68A, M86C) (human), sequence (Q14116 other isoform, or with tags, fused parts or gaps C38A K53A C68A M86C C38A K53A C68A M86C): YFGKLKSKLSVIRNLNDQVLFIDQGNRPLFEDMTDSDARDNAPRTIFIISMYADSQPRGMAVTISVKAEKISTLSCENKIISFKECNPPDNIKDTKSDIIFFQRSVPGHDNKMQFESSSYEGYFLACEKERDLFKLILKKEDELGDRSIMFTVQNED
# IL-18 polypeptide of SEQ ID NO: 37 (S55A) (human), sequence (Q14116 37-193 S91A): as the sequence (Q14116 other isoform, or with tags, fused parts or gaps C38A K53A C68A M86C C38A K53A C68A M86C) above, with K6E, A38C, A53K, S55A, A68C, C86M counted along it
# IL-18 polypeptide of SEQ ID NO: 50 (E06K, K53A, T63A) (human), sequence (Q14116 37-193 E42K/K89A/T99A): as the sequence (Q14116 other isoform, or with tags, fused parts or gaps C38A K53A C68A M86C C38A K53A C68A M86C) above, with A38C, T63A, A68C, C86M counted along it
# IL-18 polypeptide of SEQ ID NO: 41 (K53A, S55A) (human), sequence (Q14116 37-193 K89A/S91A): as the sequence (Q14116 other isoform, or with tags, fused parts or gaps C38A K53A C68A M86C C38A K53A C68A M86C) above, with K6E, A38C, S55A, A68C, C86M counted along it
# IL-18 polypeptide of SEQ ID NO: 55 (K53A, T63A, C38S, C68S, C76S, C127S, K70C) (human), sequence (Q14116 37-193 C74S/K89A/T99A/C104S/K106C/C112S/C163S): as the sequence (Q14116 other isoform, or with tags, fused parts or gaps C38A K53A C68A M86C C38A K53A C68A M86C) above, with K6E, A38S, T63A, A68S, K70C, C76S, C86M, C127S counted along it
# IL-18 polypeptide of SEQ ID NO: 60 (E6K, C38Q, K53A) (human), sequence (Q14116 other isoform, or with tags, fused parts or gaps C38Q K53A C38Q K53A): as the sequence (Q14116 other isoform, or with tags, fused parts or gaps C38A K53A C68A M86C C38A K53A C68A M86C) above, with A38Q, A68C, C86M counted along it
# IL-18 polypeptide C157 (V11I, C38A, K53A, C76A, C127A, D132A) (human), sequence (Q14116 37-193 V47I/C74A/K89A/C112A/C163A/D168A): as the sequence (Q14116 other isoform, or with tags, fused parts or gaps C38A K53A C68A M86C C38A K53A C68A M86C) above, with K6E, V11I, A68C, C76A, C86M, C127A, D132A counted along it
# IL-18 polypeptide C156 (V11I, C38A, N41A, K53A, C76A, C127A) (human), sequence (Q14116 37-193 V47I/C74A/N77A/K89A/C112A/C163A): as the sequence (Q14116 other isoform, or with tags, fused parts or gaps C38A K53A C68A M86C C38A K53A C68A M86C) above, with K6E, V11I, N41A, A68C, C76A, C86M, C127A counted along it
# IL-18 polypeptide C148 (F2A, V11I, C38A, K53A, C76A, C127A) (human), sequence (Q14116 other isoform, or with tags, fused parts or gaps V11I C38A K53A C76A C127A V11I C38A K53A C76A C127A): as the sequence (Q14116 other isoform, or with tags, fused parts or gaps C38A K53A C68A M86C C38A K53A C68A M86C) above, with F2A, K6E, V11I, A68C, C76A, C86M, C127A counted along it
# IL-18 polypeptide of SEQ ID NO: 34 (E06K, K53A, S55A) (human), sequence (Q14116 37-193 E42K/K89A/S91A): as the sequence (Q14116 other isoform, or with tags, fused parts or gaps C38A K53A C68A M86C C38A K53A C68A M86C) above, with A38C, S55A, A68C, C86M counted along it
# IL-18 polypeptide C143 (V11I, C38A, K53A, C76A, C127A) (human), sequence (Q14116 37-193 V47I/C74A/K89A/C112A/C163A): as the sequence (Q14116 other isoform, or with tags, fused parts or gaps C38A K53A C68A M86C C38A K53A C68A M86C) above, with K6E, V11I, A68C, C76A, C86M, C127A counted along it
# IL-18 polypeptide of SEQ ID NO: 54 (E06K, K53A, C38S, C68S, C76S, C127S, K70C) (human), sequence (Q14116 37-193 E42K/C74S/K89A/C104S/K106C/C112S/C163S): as the sequence (Q14116 other isoform, or with tags, fused parts or gaps C38A K53A C68A M86C C38A K53A C68A M86C) above, with A38S, A68S, K70C, C76S, C86M, C127S counted along it
# IL-18 polypeptide C167 (V11I, C38A, C76A, S105I, C127A) (human), sequence (Q14116 37-193 V47I/C74A/C112A/S141I/C163A): as the sequence (Q14116 other isoform, or with tags, fused parts or gaps C38A K53A C68A M86C C38A K53A C68A M86C) above, with K6E, V11I, A53K, A68C, C76A, C86M, S105I, C127A counted along it
# IL-18 polypeptide of SEQ ID NO: 46 (E06K, K53A, S55A, M51G) (human), sequence (Q14116 37-193 E42K/M87G/K89A/S91A): as the sequence (Q14116 other isoform, or with tags, fused parts or gaps C38A K53A C68A M86C C38A K53A C68A M86C) above, with A38C, M51G, S55A, A68C, C86M counted along it
# IL-18 polypeptide C168 (V11I, C38A, C76A, S105K, C127A) (human), sequence (Q14116 37-193 V47I/C74A/C112A/S141K/C163A): as the sequence (Q14116 other isoform, or with tags, fused parts or gaps C38A K53A C68A M86C C38A K53A C68A M86C) above, with K6E, V11I, A53K, A68C, C76A, C86M, S105K, C127A counted along it
# IL-18 polypeptide C163 (V11I, C38A, C76A, Q103K, C127A) (human), sequence (Q14116 37-193 V47I/C74A/C112A/Q139K/C163A): as the sequence (Q14116 other isoform, or with tags, fused parts or gaps C38A K53A C68A M86C C38A K53A C68A M86C) above, with K6E, V11I, A53K, A68C, C76A, C86M, Q103K, C127A counted along it
# IL-18 polypeptide of SEQ ID NO: 38 (E06K) (human), sequence (Q14116 37-193 E42K): as the sequence (Q14116 other isoform, or with tags, fused parts or gaps C38A K53A C68A M86C C38A K53A C68A M86C) above, with A38C, A53K, A68C, C86M counted along it
# IL-18 polypeptide C161 (K8R, V11I, C38A, C76A, Q103E, C127A) (human), sequence (Q14116 other isoform, or with tags, fused parts or gaps V11I C38A C76A Q103E C127A V11I C38A C76A Q103E C127A): as the sequence (Q14116 other isoform, or with tags, fused parts or gaps C38A K53A C68A M86C C38A K53A C68A M86C) above, with K6E, K8R, V11I, A53K, A68C, C76A, C86M, Q103E, C127A counted along it
# IL-18 polypeptide of SEQ ID NO: 36 (K53A) (human), sequence (Q14116 37-193 K89A): as the sequence (Q14116 other isoform, or with tags, fused parts or gaps C38A K53A C68A M86C C38A K53A C68A M86C) above, with K6E, A38C, A68C, C86M counted along it
# IL-18 polypeptide of SEQ ID NO: 53 (K53A, T63A) (human), sequence (Q14116 37-193 K89A/T99A): as the sequence (Q14116 other isoform, or with tags, fused parts or gaps C38A K53A C68A M86C C38A K53A C68A M86C) above, with K6E, A38C, T63A, A68C, C86M counted along it
# IL-18 polypeptide C144 (V11I, C38A, K53A, T63A, C76A, C127A) (human), sequence (Q14116 37-193 V47I/C74A/K89A/T99A/C112A/C163A): as the sequence (Q14116 other isoform, or with tags, fused parts or gaps C38A K53A C68A M86C C38A K53A C68A M86C) above, with K6E, V11I, T63A, A68C, C76A, C86M, C127A counted along it
# IL-18 polypeptide of SEQ ID NO: 47 (C38S, C68S, C76S, C127S) (human), sequence (Q14116 37-193 C74S/C104S/C112S/C163S): as the sequence (Q14116 other isoform, or with tags, fused parts or gaps C38A K53A C68A M86C C38A K53A C68A M86C) above, with K6E, A38S, A53K, A68S, C76S, C86M, C127S counted along it
substance,measurement,setting,value
"Fc fused human IL-18 binding protein isoform a (IL-18BPa; R&D systems, Cat #119-BP) (from UniProt O95998 31-194) (Fc fusion)",IC50 of inhibition by IL-18BP of IFNγ stimulation in NK92 cells,[1],0.444 nM
same,IC50 of inhibition by IL-18BP of IFNγ stimulation in NK92 cells,[2],7.52 nM
same,IC50 of inhibition by IL-18BP of IFNγ stimulation in NK92 cells,[3],37.3 nM
same,IC50 of inhibition by IL-18BP of IFNγ stimulation in NK92 cells,[4],780 nM
same,IC50 of inhibition by IL-18BP of IFNγ stimulation in NK92 cells,[5],> 1000 nM
same,IC50 of inhibition by IL-18BP of IFNγ stimulation in NK92 cells,[6],7.79 nM
same,IC50 of inhibition by IL-18BP of IFNγ stimulation in NK92 cells,[7],5.05 nM
same,IC50 of inhibition by IL-18BP of IFNγ stimulation in NK92 cells,[8],6.08 nM
same,IC50 of inhibition by IL-18BP of IFNγ stimulation in NK92 cells,[9],1.62 nM
same,IC50 of inhibition by IL-18BP of IFNγ stimulation in NK92 cells,[10],0.823 nM
same,IC50 of inhibition by IL-18BP of IFNγ stimulation in NK92 cells,[11],18.2 nM
same,IC50 of inhibition by IL-18BP of IFNγ stimulation in NK92 cells,[12],4.46 nM
same,IC50 of inhibition by IL-18BP of IFNγ stimulation in NK92 cells,[13],> 1000 nM
same,IC50 of inhibition by IL-18BP of IFNγ stimulation in NK92 cells,[14],1.07 nM
same,IC50 of inhibition by IL-18BP of IFNγ stimulation in NK92 cells,[15],23.5 nM
same,IC50 of inhibition by IL-18BP of IFNγ stimulation in NK92 cells,[16],0.681 nM
same,IC50 of inhibition by IL-18BP of IFNγ stimulation in NK92 cells,[17],0.189 nM
same,IC50 of inhibition by IL-18BP of IFNγ stimulation in NK92 cells,[18],229 nM
same,IC50 of inhibition by IL-18BP of IFNγ stimulation in NK92 cells,[19],27.3 nM
same,IC50 of inhibition by IL-18BP of IFNγ stimulation in NK92 cells,[20],0.176 nM
same,IC50 of inhibition by IL-18BP of IFNγ stimulation in NK92 cells,[21],0.809 nM
same,IC50 of inhibition by IL-18BP of IFNγ stimulation in NK92 cells,[22],396 nM
